Reference: US20140072613A1 (published 2014)

Assays:
Assay in all cases: cell-based or functional assay
PAK5(h) = PAK5(h) (human, UniProt Q9P286 1-719, limits assumed)
CK1γ1(h) = CK1γ1(h) (human, UniProt Q9HCP0 1-422)
Abl(M351T)(h) = Abl(M351T)(h) (human, UniProt P00519 27-1130, limits assumed)
JAK2(h) = JAK2(h) (human, UniProt O60674 808-1132, limits assumed)
HIPK3(h) = HIPK3(h) (human, UniProt Q9H422 163-562, limits assumed)
GRK5(h) = GRK5(h) (human, UniProt P34947 1-590)
PKGη(h) = PKGη(h) (human)
EGFR(L858R)(h) = EGFR(L858R)(h) (human, UniProt P00533 696-1210, limits assumed)
JAK3(h) = JAK3(h) (human, UniProt P52333 781-1124, limits assumed)
Plk1(h) = Plk1(h) (human, UniProt P53350 1-603)
ACK1(h) = ACK1(h) (human, UniProt Q07912 110-476, limits assumed)
PKA(h) = PKA(h) (human, UniProt P17612 1-351)
c-RAF(h) = c-RAF(h) (human, UniProt P04049 306-648, limits assumed)

Row | Binder | % activity, 100 µM (PAK5(h)) [%] | % activity, 100 µM (CK1γ1(h)) [%] | % activity, 100 µM (Abl(M351T)(h)) [%] | % activity, 100 µM (JAK2(h)) [%] | % activity, 100 µM (HIPK3(h)) [%] | % activity, 100 µM (GRK5(h)) [%] | % activity, 100 µM (PKGη(h)) [%] | % activity, 100 µM (EGFR(L858R)(h)) [%] | % activity, 100 µM (JAK3(h)) [%] | % activity, 100 µM (Plk1(h)) [%] | % activity, 100 µM (ACK1(h)) [%] | % activity, 100 µM (PKA(h)) [%] | % activity, 100 µM (c-RAF(h)) [%]
1 | FAKLAARLYRKALARQLGVAA [MMI-0300] | 110 | 111 | 90 | 133 | 93 |  |  |  |  |  |  |  | 
2 | KAFAKLAARLYRKALARQLGVAA [MMI-0400] |  |  |  |  |  | 131 | 98 | 52 | 122 | 119 | 95 | 119 | 102
